Test results as given in publication PMC11008601, “Motor properties of Myosin 5c are modulated by tropomyosin isoforms and inhibited by pentabromopseudilin” (Frontiers in Physiology, 2024).

Experiments:
[1] = molecular target: T1, Myo5c–HMM (Homo sapiens, UniProt Q9NQX4); assay: NADH-coupled steady-state actin-activated ATPase assay, dose-response fit; assay type: biochemical
T1 construct: heavy meromyosin fragment, residues 1-1108 (motor domain, six IQ motifs, coiled coil), C-terminal Flag tag, co-produced with light chains in baculovirus/Sf9, anti-FLAG purification; dimer; six CaM per heavy chain when co-produced with CaM only; with Calmodulin-1
T1 sequence (Q9NQX4 1-1108): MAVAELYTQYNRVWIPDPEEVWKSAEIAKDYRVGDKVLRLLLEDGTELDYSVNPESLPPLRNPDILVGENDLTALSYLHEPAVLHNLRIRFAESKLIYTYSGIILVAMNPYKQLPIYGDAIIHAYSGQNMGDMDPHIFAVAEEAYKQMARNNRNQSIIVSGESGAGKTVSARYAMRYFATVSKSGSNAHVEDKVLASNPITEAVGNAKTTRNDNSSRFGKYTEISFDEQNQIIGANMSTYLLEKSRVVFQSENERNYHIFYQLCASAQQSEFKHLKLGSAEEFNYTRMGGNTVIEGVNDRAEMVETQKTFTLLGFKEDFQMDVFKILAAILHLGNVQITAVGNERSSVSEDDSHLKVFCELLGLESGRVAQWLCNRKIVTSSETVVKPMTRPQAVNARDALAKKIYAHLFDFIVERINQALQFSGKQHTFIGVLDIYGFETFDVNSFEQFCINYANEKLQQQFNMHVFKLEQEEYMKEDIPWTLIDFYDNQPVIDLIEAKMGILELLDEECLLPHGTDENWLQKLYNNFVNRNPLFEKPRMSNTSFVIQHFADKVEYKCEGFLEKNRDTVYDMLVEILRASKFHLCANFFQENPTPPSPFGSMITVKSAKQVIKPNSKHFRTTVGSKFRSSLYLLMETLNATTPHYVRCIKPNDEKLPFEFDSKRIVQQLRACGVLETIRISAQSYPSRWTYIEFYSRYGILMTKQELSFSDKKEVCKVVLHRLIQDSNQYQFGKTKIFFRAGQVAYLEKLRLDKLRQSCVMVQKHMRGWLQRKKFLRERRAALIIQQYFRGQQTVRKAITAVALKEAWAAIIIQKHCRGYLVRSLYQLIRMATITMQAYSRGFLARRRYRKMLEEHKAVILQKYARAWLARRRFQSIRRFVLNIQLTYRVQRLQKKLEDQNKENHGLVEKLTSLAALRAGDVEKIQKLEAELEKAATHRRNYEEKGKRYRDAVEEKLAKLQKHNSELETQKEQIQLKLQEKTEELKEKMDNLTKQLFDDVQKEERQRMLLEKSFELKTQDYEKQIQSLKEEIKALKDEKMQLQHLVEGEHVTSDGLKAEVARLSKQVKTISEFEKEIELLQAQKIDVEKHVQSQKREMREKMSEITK

[2] = molecular target: Myo5c–HMM heavy chain (human Myo5c, amino acids 1–1108, C-terminal Flag) (human) (UniProt Q9NQX4); assay: co-purification on anti-FLAG affinity resin, Coomassie gel and immunoblot; Myo5c–HMM-Flag co-produced with CaM alone in Sf9; lysate on anti-FLAG-M2 resin 2 h at 4°C, washed with 500 mM NaCl and 2 mM ATP, then 100 mM NaCl, eluted with FLAG peptide; blot with anti-Flag and anti-CaM; ratio from the gel
Sequence of Myo5c–HMM heavy chain (human Myo5c, amino acids 1–1108, C-terminal Flag) (human) (Q9NQX4 1-1108): as above

[3] = molecular target: Myo5c–HMM heavy chain (human Myo5c, amino acids 1–1108, C-terminal Flag) (human) (UniProt Q9NQX4); assay: co-purification on anti-FLAG affinity resin, Coomassie gel and immunoblot; Myo5c–HMM-Flag co-produced with CaM, RLC (Myl12b) and ELC (Myl6) in Sf9; lysate on anti-FLAG-M2 resin 2 h at 4°C, washed with 500 mM NaCl and 2 mM ATP, then 100 mM NaCl, eluted with FLAG peptide; blot with anti-Myl12b, anti-CaM, anti-Myl6; ratios from the Coomassie-stained gel
[4] = molecular target: cofilaments of actin and Tpm1.8 (not stated (human β–actin or chicken α–skeletal actin prepared) | human) (UniProt P60709)
[5] = molecular target: cofilaments of actin and Tpm1.6 (not stated (human β–actin or chicken α–skeletal actin prepared) | human) (UniProt P60709)
[6] = molecular target: cofilaments of actin and Tpm3.1 (not stated (human β–actin or chicken α–skeletal actin prepared) | human) (UniProt P60709)
[7] = molecular target: F–actin (bare actin filaments) (not stated (human β–actin or chicken α–skeletal actin prepared)) (UniProt P60709)
[8] = molecular target: T2, Myo5c–HMM heavy chain (human Myo5c, amino acids 1–1108, C-terminal Flag) (human, UniProt Q9NQX4 1-1108); assay: co-purification on anti-FLAG affinity resin, Coomassie gel and immunoblot; Myo5c–HMM-Flag co-produced with CaM, RLC (Myl12b) and ELC (Myl6) in Sf9; lysate on anti-FLAG-M2 resin 2 h at 4°C, washed with 500 mM NaCl and 2 mM ATP, then 100 mM NaCl, eluted with FLAG peptide; blot with anti-Myl12b, anti-CaM, anti-Myl6; ratios from the Coomassie-stained gel; conditions: partners not purified
T2 construct: human myosin 5c (Myo5c) heavy chain, amino acids 1-1108 (motor domain, neck with IQ motifs, part of the coiled coil), Uniprot-ID Q9NQX4; Cloned in pFastBac Dual under the polyhedrin promotor; also called heavy meromyosin fragment of the Myo5c heavy chain; source: baculovirus/Sf9, co-produced with light chains; not shown: Flag, C-terminal, kept
T2 sequence (Q9NQX4 1-1108): as above

Oc1c(Br)cc(Br)cc1-c1[nH]c(Br)c(Br)c1Br [PBP, 2,3,4–tribromo–5–(3,5–dibromo–2–hydroxyphenyl)–1H–pyrrole]
IC50 [1]: 280 ± 60 nM

calmodulin (CaM) (from UniProt P0DP23 1-149) (natural protein)
stoichiometry N (CaM per heavy chain) [2]: 6
stoichiometry N (light chain:heavy chain) [3]: 2

Myo5c–HMM (CaM): Myo5c–HMM heavy chain co-produced and co-purified with calmodulin (from UniProt Q9NQX4 1-1108; P0DP23 1-149) (complex)
K (app actin) of the steady-state actin-activated ATPase (NADH-coupled assay, 30°C, 0.15 µM myosin), actin–Tpm1.8 cofilaments [4]: 3.24 µM
K (app actin) of the steady-state actin-activated ATPase (NADH-coupled assay, 30°C, 0.15 µM myosin), actin–Tpm1.6 cofilaments [5]: 2.31 µM
K (app actin) of the steady-state actin-activated ATPase (NADH-coupled assay, 30°C, 0.15 µM myosin), actin–Tpm3.1 cofilaments [6]: 5.54 µM
K (app actin) of the steady-state actin-activated ATPase (NADH-coupled assay, 30°C, 0.15 µM myosin), bare actin [7]: 5.7 µM

B1: regulatory light chain Myl12b (natural protein, human (from the printed UniProt entry), UniProt O14950 1-172, looked up)
chain: MSSKKAKTKTTKKRPQRATSNVFAMFDQSQIQEFKEAFNMIDQNRDGFIDKEDLHDMLASLGKNPTDAYLDAMMNEAPGPINFTMFLTMFGEKLNGTDPEDVIRNAFACFDEEATGTIQEDYLRELLTTMGDRFTDEEVDELYREAPIDKKGNFNYIEFTRILKHGAKDKDD
notes: myosin regulatory light chain 12B (Myl12b), Uniprot-ID O14950 (a human entry); the vector was prepared as in Reindl et al., 2022; also called RLC; source: baculovirus/Sf9, co-produced with Myo5c–HMM, CaM and Myl6
stoichiometry N [8]: ~3 light chain:heavy chain

B2: essential light chain Myl6 (natural protein, human (from the printed UniProt entry), UniProt P60660 1-151, looked up)
chain: MCDFTEDQTAEFKEAFQLFDRTGDGKILYSQCGDVMRALGQNPTNAEVLKVLGNPKSDEMNVKVLDFEHFLPMLQTVAKNKDQGTYEDYVEGLRVFDKEGNGTVMGAEIRHVLVTLGEKMTEEEVEMLVAGHEDSNGCINYEAFVRHILSG
notes: myosin essential light chain Myl6, Uniprot-ID P60660 (a human entry); the vector was prepared as in Reindl et al., 2022; also called ELC; source: baculovirus/Sf9, co-produced with Myo5c–HMM, CaM and Myl12b
stoichiometry N [8]: ~1 light chain:heavy chain
